Experimental data reported in IntAct's records for PubMed 15933069.

Columns and labels:
[1] = biological target: T1, kmt5a_human KMT5A (UniProt Q9NQR1)
T1 sequence: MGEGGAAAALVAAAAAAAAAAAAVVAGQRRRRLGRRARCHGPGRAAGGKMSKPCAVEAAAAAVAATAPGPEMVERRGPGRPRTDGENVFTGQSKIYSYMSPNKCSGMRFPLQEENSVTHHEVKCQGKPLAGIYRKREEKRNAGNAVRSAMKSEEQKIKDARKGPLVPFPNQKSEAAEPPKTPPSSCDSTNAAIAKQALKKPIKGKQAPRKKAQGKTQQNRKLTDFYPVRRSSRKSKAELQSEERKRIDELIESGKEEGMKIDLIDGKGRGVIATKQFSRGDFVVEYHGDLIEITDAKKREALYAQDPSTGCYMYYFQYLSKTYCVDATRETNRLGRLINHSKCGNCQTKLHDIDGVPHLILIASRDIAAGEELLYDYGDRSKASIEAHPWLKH

[2] = biological target: T1, kmt5a_human KMT5A; remark: listed apart in the source

| Substance | effect of a mutation on the interaction [1] | effect of a mutation on the interaction [2] |
| --- | --- | --- |
| Histone H4 (Homo sapiens) (from UniProt P62805) H19A | decreasing interaction |  |
| Histone H4 (Homo sapiens) (from UniProt P62805) H19Q |  | decreasing interaction |
| Histone H4 (Homo sapiens) (from UniProt P62805) H19Y |  | decreasing interaction |
